# In patent US20150087577A1 (POLYPHOR, published 2015):
# Bridges are numbered along the chain shown (N, C = ends). [ ]: non-standard residue; d: D form. 2Nal = N[C@@H](Cc1ccc2ccccc2c1)C(=O)O; Cit = NC(=O)NCCC[C@H](N)C(=O)O
# B1: Example 86 (peptide)
# peptide: cyclo(YR[Cit]CRG[dP]RR[2Nal]CYQA[dP]P)
# modifications: disulfide 4-11
# SMILES: C[C@@H]1NC(=O)[C@H](CCC(N)=O)NC(=O)[C@H](Cc2ccc(O)cc2)NC(=O)[C@@H]2CSSC[C@H](NC(=O)[C@H](CCCNC(N)=O)NC(=O)[C@H](CCCNC(=N)N)NC(=O)[C@H](Cc3ccc(O)cc3)NC(=O)[C@@H]3CCCN3C(=O)[C@H]3CCCN3C1=O)C(=O)N[C@@H](CCCNC(=N)N)C(=O)NCC(=O)N1CCC[C@@H]1C(=O)N[C@@H](CCCNC(=N)N)C(=O)N[C@@H](CCCNC(=N)N)C(=O)N[C@@H](Cc1ccc3ccccc3c1)C(=O)N2
# B2: Example 89 (peptide)
# peptide: cyclo(SR[Cit]CRG[dP]RR[2Nal]CYQK[dP]P)
# modifications: disulfide 4-11
# SMILES: N=C(N)NCCC[C@@H]1NC(=O)[C@@H]2CSSC[C@H](NC(=O)[C@H](Cc3ccc4ccccc4c3)NC(=O)[C@H](CCCNC(=N)N)NC(=O)[C@H](CCCNC(=N)N)NC(=O)[C@H]3CCCN3C(=O)CNC1=O)C(=O)N[C@@H](Cc1ccc(O)cc1)C(=O)N[C@@H](CCC(N)=O)C(=O)N[C@@H](CCCCN)C(=O)N1CCC[C@@H]1C(=O)N1CCC[C@H]1C(=O)N[C@@H](CO)C(=O)N[C@@H](CCCNC(=N)N)C(=O)N[C@@H](CCCNC(N)=O)C(=O)N2
# B3: Example 77 (peptide)
# peptide: cyclo(YR[Cit]CRG[dP]RR[2Nal]CYNK[dP]P)
# modifications: disulfide 4-11
# SMILES: N=C(N)NCCC[C@@H]1NC(=O)[C@@H]2CSSC[C@H](NC(=O)[C@H](Cc3ccc4ccccc4c3)NC(=O)[C@H](CCCNC(=N)N)NC(=O)[C@H](CCCNC(=N)N)NC(=O)[C@H]3CCCN3C(=O)CNC1=O)C(=O)N[C@@H](Cc1ccc(O)cc1)C(=O)N[C@@H](CC(N)=O)C(=O)N[C@@H](CCCCN)C(=O)N1CCC[C@@H]1C(=O)N1CCC[C@H]1C(=O)N[C@@H](Cc1ccc(O)cc1)C(=O)N[C@@H](CCCNC(=N)N)C(=O)N[C@@H](CCCNC(N)=O)C(=O)N2
# B4: Example 88 (peptide)
# peptide: cyclo(DR[Cit]CRG[dP]RR[2Nal]CYQK[dP]P)
# modifications: disulfide 4-11
# SMILES: N=C(N)NCCC[C@@H]1NC(=O)[C@@H]2CSSC[C@H](NC(=O)[C@H](Cc3ccc4ccccc4c3)NC(=O)[C@H](CCCNC(=N)N)NC(=O)[C@H](CCCNC(=N)N)NC(=O)[C@H]3CCCN3C(=O)CNC1=O)C(=O)N[C@@H](Cc1ccc(O)cc1)C(=O)N[C@@H](CCC(N)=O)C(=O)N[C@@H](CCCCN)C(=O)N1CCC[C@@H]1C(=O)N1CCC[C@H]1C(=O)N[C@@H](CC(=O)O)C(=O)N[C@@H](CCCNC(=N)N)C(=O)N[C@@H](CCCNC(N)=O)C(=O)N2
# B5: Example 79 (peptide)
# peptide: cyclo(YR[Cit]CRG[dP]RR[2Nal]CYKK[dP]P)
# modifications: disulfide 4-11
# SMILES: N=C(N)NCCC[C@@H]1NC(=O)[C@@H]2CSSC[C@H](NC(=O)[C@H](Cc3ccc4ccccc4c3)NC(=O)[C@H](CCCNC(=N)N)NC(=O)[C@H](CCCNC(=N)N)NC(=O)[C@H]3CCCN3C(=O)CNC1=O)C(=O)N[C@@H](Cc1ccc(O)cc1)C(=O)N[C@@H](CCCCN)C(=O)N[C@@H](CCCCN)C(=O)N1CCC[C@@H]1C(=O)N1CCC[C@H]1C(=O)N[C@@H](Cc1ccc(O)cc1)C(=O)N[C@@H](CCCNC(=N)N)C(=O)N[C@@H](CCCNC(N)=O)C(=O)N2
# B6: Example 82 (peptide)
# peptide: cyclo(YR[Cit]CRG[dP]RR[2Nal]CYLK[dP]P)
# modifications: disulfide 4-11
# SMILES: CC(C)C[C@@H]1NC(=O)[C@H](Cc2ccc(O)cc2)NC(=O)[C@@H]2CSSC[C@H](NC(=O)[C@H](CCCNC(N)=O)NC(=O)[C@H](CCCNC(=N)N)NC(=O)[C@H](Cc3ccc(O)cc3)NC(=O)[C@@H]3CCCN3C(=O)[C@H]3CCCN3C(=O)[C@H](CCCCN)NC1=O)C(=O)N[C@@H](CCCNC(=N)N)C(=O)NCC(=O)N1CCC[C@@H]1C(=O)N[C@@H](CCCNC(=N)N)C(=O)N[C@@H](CCCNC(=N)N)C(=O)N[C@@H](Cc1ccc3ccccc3c1)C(=O)N2
# B7: Example 87 (peptide)
# peptide: cyclo(YR[Cit]CRG[dP]RR[2Nal]CYQS[dP]P)
# modifications: disulfide 4-11
# SMILES: N=C(N)NCCC[C@@H]1NC(=O)[C@@H]2CSSC[C@H](NC(=O)[C@H](Cc3ccc4ccccc4c3)NC(=O)[C@H](CCCNC(=N)N)NC(=O)[C@H](CCCNC(=N)N)NC(=O)[C@H]3CCCN3C(=O)CNC1=O)C(=O)N[C@@H](Cc1ccc(O)cc1)C(=O)N[C@@H](CCC(N)=O)C(=O)N[C@@H](CO)C(=O)N1CCC[C@@H]1C(=O)N1CCC[C@H]1C(=O)N[C@@H](Cc1ccc(O)cc1)C(=O)N[C@@H](CCCNC(=N)N)C(=O)N[C@@H](CCCNC(N)=O)C(=O)N2
# B8: Example 85 (peptide)
# peptide: cyclo(YR[Cit]CRG[dP]RR[2Nal]CYQD[dP]P)
# modifications: disulfide 4-11
# SMILES: N=C(N)NCCC[C@@H]1NC(=O)[C@@H]2CSSC[C@H](NC(=O)[C@H](Cc3ccc4ccccc4c3)NC(=O)[C@H](CCCNC(=N)N)NC(=O)[C@H](CCCNC(=N)N)NC(=O)[C@H]3CCCN3C(=O)CNC1=O)C(=O)N[C@@H](Cc1ccc(O)cc1)C(=O)N[C@@H](CCC(N)=O)C(=O)N[C@@H](CC(=O)O)C(=O)N1CCC[C@@H]1C(=O)N1CCC[C@H]1C(=O)N[C@@H](Cc1ccc(O)cc1)C(=O)N[C@@H](CCCNC(=N)N)C(=O)N[C@@H](CCCNC(N)=O)C(=O)N2
# B9: Example 80 (peptide)
# peptide: cyclo(YR[Cit]CRG[dP]RR[2Nal]CYAK[dP]P)
# modifications: disulfide 4-11
# SMILES: C[C@@H]1NC(=O)[C@H](Cc2ccc(O)cc2)NC(=O)[C@@H]2CSSC[C@H](NC(=O)[C@H](CCCNC(N)=O)NC(=O)[C@H](CCCNC(=N)N)NC(=O)[C@H](Cc3ccc(O)cc3)NC(=O)[C@@H]3CCCN3C(=O)[C@H]3CCCN3C(=O)[C@H](CCCCN)NC1=O)C(=O)N[C@@H](CCCNC(=N)N)C(=O)NCC(=O)N1CCC[C@@H]1C(=O)N[C@@H](CCCNC(=N)N)C(=O)N[C@@H](CCCNC(=N)N)C(=O)N[C@@H](Cc1ccc3ccccc3c1)C(=O)N2
# B10: Example 78 (peptide)
# peptide: cyclo(YR[Cit]CRG[dP]RR[2Nal]CYDK[dP]P)
# modifications: disulfide 4-11
# SMILES: N=C(N)NCCC[C@@H]1NC(=O)[C@@H]2CSSC[C@H](NC(=O)[C@H](Cc3ccc4ccccc4c3)NC(=O)[C@H](CCCNC(=N)N)NC(=O)[C@H](CCCNC(=N)N)NC(=O)[C@H]3CCCN3C(=O)CNC1=O)C(=O)N[C@@H](Cc1ccc(O)cc1)C(=O)N[C@@H](CC(=O)O)C(=O)N[C@@H](CCCCN)C(=O)N1CCC[C@@H]1C(=O)N1CCC[C@H]1C(=O)N[C@@H](Cc1ccc(O)cc1)C(=O)N[C@@H](CCCNC(=N)N)C(=O)N[C@@H](CCCNC(N)=O)C(=O)N2
# B11: Example 6 (peptide)
# peptide: cyclo(YR[Cit]VRRR[2Nal]VY[Cit]K[dP]P)
# SMILES: CC(C)[C@@H]1NC(=O)[C@H](CCCNC(N)=O)NC(=O)[C@H](CCCNC(=N)N)NC(=O)[C@H](Cc2ccc(O)cc2)NC(=O)[C@@H]2CCCN2C(=O)[C@H]2CCCN2C(=O)[C@H](CCCCN)NC(=O)[C@H](CCCNC(N)=O)NC(=O)[C@H](Cc2ccc(O)cc2)NC(=O)[C@H](C(C)C)NC(=O)[C@H](Cc2ccc3ccccc3c2)NC(=O)[C@H](CCCNC(=N)N)NC(=O)[C@H](CCCNC(=N)N)NC(=O)[C@H](CCCNC(=N)N)NC1=O
# B12: Example 83 (peptide)
# peptide: cyclo(YR[Cit]CRG[dP]RR[2Nal]CYMK[dP]P)
# modifications: disulfide 4-11
# SMILES: CSCC[C@@H]1NC(=O)[C@H](Cc2ccc(O)cc2)NC(=O)[C@@H]2CSSC[C@H](NC(=O)[C@H](CCCNC(N)=O)NC(=O)[C@H](CCCNC(=N)N)NC(=O)[C@H](Cc3ccc(O)cc3)NC(=O)[C@@H]3CCCN3C(=O)[C@H]3CCCN3C(=O)[C@H](CCCCN)NC1=O)C(=O)N[C@@H](CCCNC(=N)N)C(=O)NCC(=O)N1CCC[C@@H]1C(=O)N[C@@H](CCCNC(=N)N)C(=O)N[C@@H](CCCNC(=N)N)C(=O)N[C@@H](Cc1ccc3ccccc3c1)C(=O)N2
# B13: Example 81 (peptide)
# peptide: cyclo(YR[Cit]CRG[dP]RR[2Nal]CYSK[dP]P)
# modifications: disulfide 4-11
# SMILES: N=C(N)NCCC[C@@H]1NC(=O)[C@@H]2CSSC[C@H](NC(=O)[C@H](Cc3ccc4ccccc4c3)NC(=O)[C@H](CCCNC(=N)N)NC(=O)[C@H](CCCNC(=N)N)NC(=O)[C@H]3CCCN3C(=O)CNC1=O)C(=O)N[C@@H](Cc1ccc(O)cc1)C(=O)N[C@@H](CO)C(=O)N[C@@H](CCCCN)C(=O)N1CCC[C@@H]1C(=O)N1CCC[C@H]1C(=O)N[C@@H](Cc1ccc(O)cc1)C(=O)N[C@@H](CCCNC(=N)N)C(=O)N[C@@H](CCCNC(N)=O)C(=O)N2
# B14: Example 84 (peptide)
# peptide: cyclo(YR[Cit]CRG[dP]RR[2Nal]CYQN[dP]P)
# modifications: disulfide 4-11
# SMILES: N=C(N)NCCC[C@@H]1NC(=O)[C@@H]2CSSC[C@H](NC(=O)[C@H](Cc3ccc4ccccc4c3)NC(=O)[C@H](CCCNC(=N)N)NC(=O)[C@H](CCCNC(=N)N)NC(=O)[C@H]3CCCN3C(=O)CNC1=O)C(=O)N[C@@H](Cc1ccc(O)cc1)C(=O)N[C@@H](CCC(N)=O)C(=O)N[C@@H](CC(N)=O)C(=O)N1CCC[C@@H]1C(=O)N1CCC[C@H]1C(=O)N[C@@H](Cc1ccc(O)cc1)C(=O)N[C@@H](CCCNC(=N)N)C(=O)N[C@@H](CCCNC(N)=O)C(=O)N2
# Molecular target: human CXCR4 (human, UniProt P61073 1-352)
# Experiment: cell-based or functional assay
# Sequence of human CXCR4 (P61073 whole entry): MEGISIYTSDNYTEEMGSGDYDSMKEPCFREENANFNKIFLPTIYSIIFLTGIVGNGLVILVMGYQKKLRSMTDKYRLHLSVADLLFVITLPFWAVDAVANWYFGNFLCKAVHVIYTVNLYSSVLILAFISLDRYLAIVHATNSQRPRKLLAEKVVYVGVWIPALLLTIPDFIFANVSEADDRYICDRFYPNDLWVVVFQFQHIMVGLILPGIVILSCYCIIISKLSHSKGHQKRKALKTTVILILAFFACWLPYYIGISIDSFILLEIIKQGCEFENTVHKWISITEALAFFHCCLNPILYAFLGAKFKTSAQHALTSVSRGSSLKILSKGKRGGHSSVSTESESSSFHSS
Binder,IC50 (nM) Ca2+ assay (method 2) [nM],IC50 (nM) Ca2+ assay (method 1) [nM]
B1,0.69,–
B2,0.5,–
B3,7,–
B4,2.5,–
B5,2.4,–
B6,4.8,–
B7,3.5,–
B8,2.7,–
B9,2.9,–
B10,11,–
B11,–,1930
B12,3.7,–
B13,4.9,–
B14,3.9,–
